According to patent publication US10889618B2, “D-enantiomeric peptides derived from D3 and use thereof” (FORSCHUNGSZENTRUM JUELICH GMBH, priority 2012, dated 2021):
Entries after “also recorded” stand apart in the source; their conditions may differ. Non-standard residues stand in square brackets, D forms with d. No end group written: not given here.

Experiments:
A-beta1-42 = target: T1, A-beta1-42 (Homo sapiens, UniProt P05067); test: Density gradient centrifugation (iodixanol): modulation of A-beta1-42 aggregation behavior; type: biochemical; conditions: for Peptide bound in fraction 12 [%]: FITC-labelled peptide, amount of dye in fraction 12 of the iodixanol gradient, estimate of binding to / precipitation of A-beta oligomers; for Effect on A-beta aggregation (distribution of A-beta over gradient fractions): 80 μM A-beta1-42, 20 μM peptide, 259,000×g, 3 h, 4° C., SDS-PAGE, silver staining
T1 construct: overlayed with 100 μl of a 80 μM A-beta1-42 solution
T1 sequence (P05067 672-713): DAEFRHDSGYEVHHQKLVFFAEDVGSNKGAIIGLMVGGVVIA
Text: The effects of the peptides described in the table on A-beta aggregation were investigated by means of density gradient centrifugation. Thus, A-beta was mixed with the respective peptide and the particles formed are separated according to size. The sample to be investigated was placed on the surface of the centrifuge tube in which a density gradient was charged, which consisted of layers of different iodixanol concentrations in this example. During the several hours of separation, the molecules sediment at different rates in the solvent, namely, more rapidly the larger the particles. The centrifugation is terminated at a suitable time point and different constituents of the sample are obtained in the various layers which are analyzed by SDS-PAGE. A-beta without addition of peptide served as control.
This changes on addition of RD2. […] Large aggregates are formed which are detectable in fractions 10-15. […] All D-enantiomeric peptides which were characterized with A-beta using the method mentioned above were labelled with FITC. The amount of dye detectable in fraction 12 was used to estimate the binding strength of the respective D3 derivative to A-beta oligomers or the oligomer precipitating effects thereof in vitro. It was shown that the peptide RD2 especially has a significant effect on A-beta aggregation compared to D3.
FIG. 1: Modulation of the A-beta1-42 aggregation behavior by RD2, analzyed by an iodixanol density gradient. The iodixanol gradient was overlayed with 100 μl of a 80 μM A-beta1-42 solution and 100 μl of a 80 μM A-beta and 20 μM RD2 mixture. The mixture was then centrifuged at 259,000×g for 3 h at 4° C. The 15 fractions (fraction 15 is the pellet boiled with the loading buffer) were harvested manually immediately after the centrifugation and analyzed by Tris-Tricin-SDS-PAGE followed by silver staining.

A-beta oligomers = A-beta oligomers (Homo sapiens, UniProt P05067); conditions: D3 in higher concentrations (than 20 μM); cited from earlier work
A-beta oligomers, sequence (P05067 672-713 limits assumed): as the sequence (P05067 672-713) above

| Substance | Peptide bound in fraction 12 [%] (A-beta1-42) | Effect on A-beta aggregation (distribution of A-beta over gradient fractions) (A-beta1-42) | Precipitation of A-beta oligomers (A-beta oligomers) |
| --- | --- | --- | --- |
| pnhhrrrrrttl ([dP][dN][dH][dH][dR][dR][dR][dR][dR][dT][dT][dL]) [RD1, D3 derivative, rational D3] | 3 |  |  |
| ptlhthnrrrrr ([dP][dT][dL][dH][dT][dH][dN][dR][dR][dR][dR][dR]) [RD2, D3 derivative, rational D3] | 20 | fewer A-beta oligomers could be detected in the fractions 3-9 |  |
| rprtrl ([dR][dP][dR][dT][dR][dL]) [NT-D3, D3 derivative, D3-N-Terminus] | 0 |  |  |
| rprtrlhthrnr ([dR][dP][dR][dT][dR][dL][dH][dT][dH][dR][dN][dR]) [Peptide D3, D-enantiomeric D-peptide D3, parent peptide used as comparison, reference compound] | 4 | no change was apparent; also recorded: no effect | precipitates A-beta oligomers and converts them into large, amorphous and non-toxic aggregates |
| rprtrlrnr ([dR][dP][dR][dT][dR][dL][dR][dN][dR]) [Peptide D3Δhth, D3 with deletion hth] | 2 |  |  |
| rrptlrhthnrr ([dR][dR][dP][dT][dL][dR][dH][dT][dH][dN][dR][dR]) [RD3, D3 derivative, rational D3] | 4 |  |  |
